According to a protein production outcome set (Wang et al. 2014):

Assay: label from the status in PepcDB records

PGEAVGVTIFEMALDELAEKAGLDPLELRLRNIPEEDPETGKPFTSHMLAEALRDGADRFGWSDRRAPGERRQGEWLIGMGMASAVRVNMLHKARVRVTLTGEGALVESSMTDIGTGTYTILTQIVAEMLGLAPDRVRTVLGDTDLPEGSGSGGSIGAASNGSAAFLACEEIRRQIAAGMGCPEEELTLKDGRATCGNRTRDLAEIVTQPLSAEGHFEPGKALKGVRSSTFGAHFAEVAVNEITGEVRVRRMLGAFAAGRILNEKTARSQCLGGMTFGIGMALMEEMVHDRRFGQVVSRDLANYHIPAHADVPALEVHFLEERDSYGGTLQAKGIGELGICGSGAAVLNAIHNACGVRVRDLPATPDKVLDGL
protein production: failed

MSFEAFTELYIRDVKTRLKENTWLTKEHIIRTKILPYFGKLRISEISTKEIITWQNELLAYRDEKKKPYSQTYLKTLHNQLSAIFNHAVRYYELRSNPAAKVGNMGSE
protein production: failed

MDILKTLQKHLGDVETSDFTTNAIEKSQQIAKFSRDMKNINESVGALQVLQIACKKLFNKSMGLEDKDALQASIIKQELREIVENCQFLASPLFDTQLNIAINDEIFSMIVVNPLDLLENVGEFQAYLEEKLNEIKELLGYLSESLSNPKAFMPSFSNQSLKDLLSDNLRA
protein production: failed

MNRYQALFQRLSAAQQGAFVPFVTIGDPNPEQSLAIMQTLIDAGADALELGMPFSDPLADGPTIQGANLRALAAKTTPDICFELIAQIRARNPETPIGLLMYANLVYARGIDDFYQRCQKAGVDSVLIADVPTNESQPFVAAAEKFGIQPIFIAPPTASDETLRAVAQLGKGYTYLLSRAGVTGAETKANMPVHALLERLQQFDAPPALLGFGISEPAQVKQAIEAGAAGAISGSAVVKIIETHLDNPAKQLTELANFTQAMKKATKI
protein production: not failed

MTDNLINNGTKTTPEAEILTAASNSRSSDAQHDDTAPAGEVLLDIDPDELLSDPAEKEETSAQDIALPDHVAGSGSLDRLIDQARDYAEAATAENTNKAYKADWKHFTGWCRRKGVDALVPSPAVIGLYISDCAKPQDGSPALSVSTIERRLSGLAANYRQRGLALDMKDRHIASVWAGIKRHHAKPPTQKEAVLIEDVLAMVGALSYSLRDLRDRAILLIGYAGGLRRTEIVGLDVGKDESDDGRGWVEILEGGAVLHIKGKTGWREVEIGRGSADQTCPVYALEQWLHYAKIDVGSVFRQVFRDNSRIGPERLSDKHVVRLIKRLVLETGVGLDRPALSKLSDEERAKFFAGHSLRAGLASGAEVDERYVQKQLGHASAEMTRRYQRRRDRFRVNLTKAVGL
protein production: failed

MVKVSIIIPIYNVENYLDKCLDTAVNQTLGCIEIIGIDDGSTDKSRDILNKYAKKYSFIKIINKENGGLSSARNTGIINAKGEYIYFLDSDDYIEYDSMKICYEIATKNKLDIVSFDAESFVDGEGFTKKLKKYDRKDILDGNIKMGCEYFCELIKNKCYTASACLNFYRREFLIDNNLFFYDGILHEDELYTVKAYTLANKVRYIPYKLYFRRLRSNSITTQSISEKHLYGRLIAARESYRHYLGYKDVFDNDTNTCLLNHISNMYYFMLKDIYENKRIYNKRYIIEDKIINDIKSKKDIKSFKLDLQYRFPLIIYTIKKYLKKD
protein production: failed

MRRLNRFKAPDEKVNTLFQVYKTISFWKVVKNTVVVEFGRFFPWMGGKRNIYRACLGMKIGKKTAIAYKVMPDLFFPEKITIGENSIIGYHTTILTHEYLLSEYHVGEVVIGKNVMVGANVTILPGIEIGDGAIVAAGAVVSKDVPPESFAYGNPLVIKEKAALEHHHHHH
protein production: not failed

FSTFDSKYDRFLRGEEKLTDQEELGRVLISSTQFTNCNTCHEIRGAKGLEDGLFTNHKYFNIGVPANTSVRAVNGSKPDAVDLGLAQNPAVAGDPAQRGKFKVPTLRNVAVTGPYMHNGVFKDLRTVVLFYVKYKSKKPSRQINPETGKTWDAPEVPENIAMTELTSAPALDDKRVDAIVAFLKTLTDRRYEHLLPKEDGQTAAPT
protein production: failed

MIRRLLRMVRGRTGQRLPDGGIQQDEASKIETAGDSDAREQRAADSDTTREMGTDTGTGLSTGRFVDENVRLLLNGLSQPTFVLDAEGEVVAWNEALAELTGATRDEAVGHDHASEMFYPDGRRAKTLADKVLEHPETVHEEYDVELEAPEMGRVADTSTMLDQYGDEKHIYFAATPQYRDGELVGVVETVIDRTEEVERRLAIERLVGTLGSTLESLRSGELDARAELEDEHAAALDDELLDVVDALNAFAEEFQTLSGRVEQQADRLDDAVDRVVEAAAEISDAVGEQNELVDDAVSEMQTFSAQMEEVAATAQDVDEAASDAKETAEHGLETGQDAREAAKEVTDISEELVDDITALQARMDDIESVVEVVSDVADQTNILALNANIEAARADESGEGFAVVADEVKSLADETQSHTDDITDSIEKLREQTDRTVSAAMTSSERVDRADQRIQEMFDAFEDIADAVEAAADGIAEVAQANDDQAASIEEVTATLETVREHSERAETAAEDVESAATSQAESIDALIKRVERLREGTADAADAA
protein production: failed

MASLRVACVIPTYNGRKDLERLLDSLATQTASFDTLIVDSSSSDGTLELAQARCANVLRIDSKDFNHGGTRQMMVDVHPDYDVYVYMTQDAYVEDIDAIANILLPFADPKVGAVCGRQLPHKNANLLAQHARLFNYPPTSQIKTLADAGTLGIKTPFMSNSFAAYRGEALRAIGGFPRHVILSEDMYVTAKMLIDGWKVAYEGSAVCRHSHNYSLREEFCRYFDIGVFQSREAWIYETFGGIGGEGMRYVKSELKFLGPRRLLWWPMSFVRNALKLLAYKLSKQEKRLPRGLKKKLGMYKRYWDSPYA
protein production: failed

MKIRHVSHQAWLLFLVALLVLGSGLGLRDPHPADEPRFALVAKQMVDSGEWLFPHRGNELYSDKPPMLMWLQAAFYTLFGNLKVAFLLPSLLAALGTLVCVYDLGRRLWTRRIGLYAAYALLFTFHFTYQAKRAQIDALVVFFITFANYGLLRHLLFGGHWRWWVLGWFAAGLGTITKGVGALALLIVLPAAAASLAGWPRVRVHVRDVRFWLGPLGFLVAVSLWLVPMVMTALSAQQPEYRAYLNDILLRQTFGRYTKSWDHAQPPWYFLQVMLVMWIPTLLALPWALPAWWRRMRRRDPRYLLPLAWCVLLLVFFSIPSGKRDVYMLPALPMVCLALAPLLPGLLRKRACSRLLLAFGVLLVLVLAVFGAGLLIRSDWQARMMEGTTLILEDVRVIAWGGIAVASWGVFSLLAFSQRRPVVAVFSVLTTLWLVFGLVLMPVVNDSSSARGVMMIAGKRIGPAAELGLVAWKEQNLLMADRSVATFGFLVPWDEQLRRGIAWQVQRPRQRWLLVQEAAMFGCINRSASVFVGSSNRRAWWLVPAWAVHGACIMTQAEHDRLSKQ
protein production: failed

GDFGRHSITSGGSGGGGFRQRGSSGSSSRHTERGYSSGRSGASSYNGREGGGSGFNRREVYGGGRDSSRYSSGSSASYGRTGGQSAGRFRSRSPVGNHRF
protein production: failed

MYDSRGVALHSELIHRWNHAFSILSIVAFPKKRLLFAGSQDSKILVFDLPTYNLIHTIRLGESQEETHTRSSVLCLTGSEDENFLFSGGADSLVRIWSIGEKTIRDDFLPVTEIATVYSVTDIGDIFSLAYLDSLETIVFGCQNASLLYVENLIQKIEKKSSDGVENINKLPHRRYDKFFDSLGPTGYSSNSLSQTSLTSLQENCGAAIIEVPSENIIKYAHYGFIYSINKLCPRFNQLLEKSSRTSGAEHIISSAGDGISKLWEFSKDKGQNTVKISLINDKIDNEDSVISQTIEFPFLYCGLTDGIIKIWDLNTQQIISTLKTKHESDVISISVYMDHVFAIDESGITHFYQNQVNHWNPQQGKILSSEIFSKSNAGSVSLLTGGSDGSLTLWDITSLLSAVPLSSNSPINASSTLQTTNLWAAYQSASLNNEEMLNTLRELISFQTVSQSKDTTNTLSLRRCAIYLQQLFLKFGATNSQLFPLPDGGNPVVFAYFQGNGKVSQVKGAKKKRILWYGHYDVISSGNTFNWNTDPFTLTCENGYLKGRGVSDNKGPLVSAIHSVAYLFQQGELVNDVVFLVEGSEEIGSASLKQVCEKYHDIIGKDIDWILLSNSTWVDQEHPCLNYGLRGVINAQIKVWSDKPDGHSGLNGGVYDEPMVNLVKIVSKLQNEQNEIMIPNFYSPLKDLTEEEYQRFQKITELANIDENTTVQDLITNWTKPSLSMTTVKFSGPGNITVIPKSVTMGISIRLVPEQSVEQVKRDLKAYLEESFKQLKSQNHLEIKVLNEAEGWLGDPTNHAYQILKDEITTAWDVEPLLVREGGSISCLRMLERIFDAPAVQIPCGQSTDNGHLANENLRIKNWSNLTEILSKVFNRL
protein production: failed

MKNFLETIEDMILIINREGRLLYANTAVPKKLGYPHEELMSMHILTITSAGKMAEGEKILAELFAGKKESLPLSLEKKEGTSIPAKARIWQGKWHNEPCLFAIIKDLSKEERASSPPFLEHHHHHH
protein production: not failed

MWGQMRNRNWRSRALCTVVATSLLALGGPLLSATAAGGPNIAVGDATAASSSHGEYGAANITDGNQGTYWQSGGGSLPQWVQTDLGATERIDEVVLRLPAGWESRDQTLSVQGSADGTGFSTLKTSATYAFDPGSGNTVTIAFPATQTRFVRVDITANTGWQAAQLSELEVHAAGESSVNLAAGRRLTASSSTGAYTPGNGNDGNKATYWESANNALPQWLQADLGSARRVNRVVLRLPDGWPARSQTLKIQASDNGSDFTDLTAAKAYTFDAAGGQSATVTFDAATARYVRVLVTANTGQPAAQISELEVYGPETGDTQAPTTPANLAFTEPATGQIRLTWNESSDDTAVTGYDVYANGDLLTSVAGDVTTYTDTRPAGTTVTYHVRAKDAAGNQSGDSNSVTRRADTGDTQAPTAPSNLALTEPVPGQVKLTWTASTDDRGVTGYDVYADNKLRKSVAGNVTTYTDTQPASANVTYFVRAKDAAGNESGDSNSVFRGGTMDGSNLAVGKPITASSHIHTYVAENANDNSTSTYWEGAAGGYPNTLTLKLGANADVDSVVLKLNPDAGWSRRTQHIEVLGRAQDASGLTSLVAARDYVFDPASGGNSVTIPVGERAADVQLKFTSNTGATAGQVAEFQVIGTPAPNPDLEVTGLTASPGSPVESDEITVSATVRNSGAADAPAGKVAVRLGDTKVATADVPALEAGAQRTVSASLGAREAGSYELSAVADEANEIIEQNETNNTYTRPDPLVVKPVQSSDLVAAAVTTSPSSPAAGDDVTFRVALRNQGTQDSAGGGHPVTLALVDSKGDTVKTLTGTHSGVIAAGSTAPAVSLGTWKAANGSYSLKVTVADDANELPVKRENNTSTQPLFVGRGANMPYDMYEAEDGTVGGGATVVGPNRTIGDIAGEASGRKAVHLDRTGEYVEFTTKADTNTLVTRFSIPDAPGGGGIDATLDVYVDGVMKKALPLTSKYAWLYGAEASPGNSPGAGAPRHIYDEAHIMLGETVPAGSTIRLQKDAANTSDYAIDFVNLEQVSATANPDPAAYAVPAGFTHQDVQNALDKVRMDTSGKLVGVYLPPGDYQTSSKFQVYGKAVKVVGAGPWFTKFHAPTTQDNTDIGFRAEASAKGSTFANFAYFGNYTSRIDGPGKVFDFSNTSDIVIDNIWNEHMVCLYWGANTDRMTIRNSRIRNMFADGINMTNGSTDNLVSNNDARATGDDSFALFSAIDAGGADMKNNLYENLTTTLTWRAAGLAVYGGYNNTFRNIHIADTLVYSGITISSLDFGYPMNGFGTDPTTFENVSIVRAGGHFWGGQTFPGIWVFSASKVFQGIRVNNVDIVDPTYSGIMFQTNYVGGQPQFPIKDTVFTDVSVTGAHKSGDEFDAKSGFGLWANEMPESGQGPAVGEVTFNGLALGDNAVDIRNTTSTFKIIRNP
protein production: failed

MVKCLSAHNKAPHVSVITPSYNSIRFIGETIVSVQNQSYENWEMIIVDDASTDESVTKIKEIIEGDSRIRLVSLKENIGAAKARNIAIQEARGRYIAFLDSDDIWLPHKLKTQLLFMEEMSVAFSYASYSLIDENGNGLNREVNVPKSVDYHCLAGNTIIGCLTVIIDREKIPHIEMPSVQPEDTALWLKLLHEGHEAKGIQQVLAKYRIVANSVSRNKIKAAFRYWKLLRDQKCLNAVQIFYYFSKYAYHAYRKNKINVVGKTQL
protein production: failed

EPNRLIKEKSPYLLQHAYNPVDWYPWGEEAFEKARKENKPVFLSIGYSTCHWCHMMAHESFEDEEVAGLMNEAFVSIKVDREERPDIDNIYMTVCQIILGRGGWPLNIIMTPGKKPFFAGTYIPKNTRFNQIGMLELVPRIKEIWEQQHEEVLDSAEKITSTIQEMIKESSG
protein production: not failed
